Measurements: patent US20100040611A1 (Merck Sharp & Dohme, published 2010)
Read-outs that look alike come from different tables or passages of the source. Values belong to the binder of their own block, whether it stands above or below them.

Tests used:
Experiment in all cases: cell-based or functional assay
[1] = target: T1, recombinant human PCSK9, V5-, His-tagged (human, UniProt Q8NBP7 31-692, limits assumed)
[2] = target: T1, recombinant human PCSK9, V5-, His-tagged; remark: listed apart in the source
[3] = target: T1, recombinant human PCSK9, V5-, His-tagged; remark: listed apart in the source
[4] = target: T1, recombinant human PCSK9, V5-, His-tagged; remark: listed apart in the source
[5] = target: T1, recombinant human PCSK9, V5-, His-tagged; remark: listed apart in the source

T1 sequence (Q8NBP7 31-692 limits assumed): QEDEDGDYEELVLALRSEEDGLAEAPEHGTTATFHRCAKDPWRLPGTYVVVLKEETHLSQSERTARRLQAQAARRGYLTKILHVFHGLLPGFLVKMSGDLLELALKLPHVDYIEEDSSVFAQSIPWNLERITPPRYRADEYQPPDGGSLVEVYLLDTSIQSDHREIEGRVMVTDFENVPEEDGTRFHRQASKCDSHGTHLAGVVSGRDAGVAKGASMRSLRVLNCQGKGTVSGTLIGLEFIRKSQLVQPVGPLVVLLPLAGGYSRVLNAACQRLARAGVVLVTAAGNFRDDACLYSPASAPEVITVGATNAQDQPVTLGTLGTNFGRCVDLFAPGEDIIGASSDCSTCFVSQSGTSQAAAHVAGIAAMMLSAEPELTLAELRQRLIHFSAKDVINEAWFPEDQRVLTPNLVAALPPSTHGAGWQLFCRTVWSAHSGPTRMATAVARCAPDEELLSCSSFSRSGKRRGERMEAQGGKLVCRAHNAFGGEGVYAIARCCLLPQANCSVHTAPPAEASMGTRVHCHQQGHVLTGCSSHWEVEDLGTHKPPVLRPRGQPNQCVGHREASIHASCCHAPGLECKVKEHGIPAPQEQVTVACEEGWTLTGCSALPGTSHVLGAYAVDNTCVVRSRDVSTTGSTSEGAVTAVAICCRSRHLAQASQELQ

- IC50: reversal of PCSK9-dependent loss of cellular diI-LDL uptake (Exopolar assay), Fab titrated against a fixed 25 µg/ml PCSK9 [1]: 127 nM
B1: 3CX4B08 (Fab, V domains shown)
VH: QVQLVESGGGLVQPGGSLRLSCAASGFTFSNYTMNWVRQAPGKGLEWVSFISSSSSETYYADSVKGRFTISRDNSKNTLYLQMNSLRAEDTAVYYCARGYGDMVDLWGQGTLVTVSS
VL: DIELTQPPSVSVAPGQTARISCSGDSIPTYYVAWYQQKPGQAPVLVIYSDTDRPSGIPERFSGSNSGNTATLTISGTQAEDEADYYCQSFDNHGYHVFGGGTKLTVLG

- IC50: reversal of PCSK9-dependent loss of cellular diI-LDL uptake (Exopolar assay), Fab titrated against a fixed 25 µg/ml PCSK9 [2]: 267 nM
B2: 1CX1G08 (Fab, V domains shown)
VH: QVQLVESGGGLVQPGGSLRLSCAASGFTFSDYWVSWVRQAPGKGLEWVSFISYDGSSTYYADSVKGRFTISRDNSKNTLYLQMNSLRAEDTAVYYCARTYFEGVDVWGQGTLVTVSS
VL: DIELTQPPSVSVAPGQTARISCSGDNIGTYYVHWYQQKPGQAPVLVIYDDSNRPSGIPERFSGSNSGNTATLTISGTQAEDEADYYCGTWDNTSFNLVFGGGTKLTVLG

- IC50: reversal of PCSK9-dependent loss of cellular diI-LDL uptake (Exopolar assay), Fab titrated against a fixed 25 µg/ml PCSK9 [3]: 107 nM
B3: 3CX2A06 (Fab, V domains shown)
VH: QVQLVQSGAEVKKPGESLKISCKGSGYSFSNFWIAWVRQMPGKGLEWMGIIDPSDSWTRYSPSFQGQVTISADKSISTAYLQWSSLKASDTAMYYCARGDGQDFDNWGQGTLVTVSS
VL: DIQMTQSPSSLSASVGDRVTITCRASQNINSYLNWYQQKPGKAPKLLIYAASSLQSGVPSRFSGSGSGTDFTLTISSLQPEDFAVYYCLQNYDLPNTFGQGTKVEIKR

- IC50: reversal of PCSK9-dependent loss of cellular diI-LDL uptake (Exopolar assay), Fab titrated against a fixed 25 µg/ml PCSK9 [4]: 269 nM
B4: 3CX3D02 (Fab, V domains shown)
VH: QVQLVQSGAEVKKPGESLKISCKGSGYSFTNSWIGWVRQMPGKGLEWMGIIYPSDSYTIYSPSFQGQVTISADKSISTAYLQWSSLKASDTAMYYCARGGGYYYALMDVWAQGTLVTVSS
VL: DIQMTQSPSSLSASVGDRVTITCRASQTISTWLNWYQQKPGKAPKLLIYAASSLQSGVPSRFSGSGSGTDFTLTISSLQPEDFATYYCLQDSSLPLTFGQGTKVEIKR

- IC50: reversal of PCSK9-dependent loss of cellular diI-LDL uptake (Exopolar assay), Fab titrated against a fixed 25 µg/ml PCSK9 [5]: 1250 nM
B5: 3BX5C01 (Fab, V domains shown)
VH: QVQLVQSGAEVKKPGESLKISCKGSGYSFTSYGISWVRQMPGKGLEWMGMIDPSDSFTTYSPSFQGQVTISADKSISTAYLQWSSLKASDTAMYYCARGYYFTYALQPMDHWGQGTLVTVSS
VL: DIELTQPPSVSVAPGQTARISCSGDNLRDYIVHWYQQKPGQAPVLVIYDDSNRPSGIPERFSGSNSGNTATLTISGTQAEDEADYYCGFDNGGDIDVFGGGTKLTVLG
